± gives the standard deviation of the averaged measurements.
Columns and labels:
Saccharomyces cerevisiae [1] = experiment: protein stability index of tFT-peptide fusion (C-terminal peptide) (PSI (0-1 scale)); higher = more stable (slower turnover); conditions: genetic background: wild type; temperature: 30 C
Saccharomyces cerevisiae [2] = experiment: as above
Description: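 MPS profiling in S. cerevisiae of the tFT-X12 degron library: putative degron peptides plus stable controls, 12 aa, fused to the C-terminus of a sfGFP-mCherry timer. Cells are FACS-sorted into 8 mCherry/sfGFP bins and deep-sequenced. PSI runs from 0 (unstable) to 1 (stable). Backgrounds are wild type, das1Δ and doa10Δ at 30 °C, and wild type, das1Δ, cdc34-1 and cdc53-1 at 37 °C; 2-3 technical replicates each.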

[3] = genetic background: cdc34-1, temperature: 37 C
[4] = genetic background: cdc53-1, temperature: 37 C
[5] = genetic background: das1 deletion, temperature: 30 C
[6] = genetic background: das1 deletion, temperature: 37 C
[7] = genetic background: doa10 deletion, temperature: 30 C
[8] = genetic background: wild type, temperature: 30 C
[9] = genetic background: wild type, temperature: 37 C
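Note: PSI is a weighted mean of sequencing reads over stability bins, variants kept only with over 10 reads, mCherry proximal and sfGFP distal, peptide attached via GGGS linker.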

| Sequence | protein stability index (Saccharomyces cerevisiae [1]) | protein stability index (Saccharomyces cerevisiae [2]; [3]) | protein stability index (Saccharomyces cerevisiae [2]; [4]) | protein stability index (Saccharomyces cerevisiae [2]; [5]) | protein stability index (Saccharomyces cerevisiae [2]; [6]) | protein stability index (Saccharomyces cerevisiae [2]; [7]) | protein stability index (Saccharomyces cerevisiae [2]; [8]) | protein stability index (Saccharomyces cerevisiae [2]; [9]) |
| --- | --- | --- | --- | --- | --- | --- | --- | --- |
| AAFLGVLCWCWG | 0.433 ± 0.011 | 0.436 ± 0.039 | 0.465 ± 0.0079 | 0.363 ± 0.033 | 0.486 ± 0.0051 | 0.323 ± 0.0063 | 0.351 ± 0.019 | 0.4703 ± 0.00083 |
| ACVRFPLVLVVF | 0.147 ± 0.014 | 0.0242 ± 0.0039 | 0.0448 ± 0.015 | 0.0965 ± 0.018 | 0.0904 ± 0.0059 | 0.0902 ± 0.022 | 0.0825 ± 0.029 | 0.0644 ± 0.0039 |
| AFKRVFWALWWM | 0.36 ± 0.014 | 0.367 ± 0.01 | 0.39 ± 0.0072 | 0.421 ± 0.03 | 0.563 ± 0.039 | 0.431 ± 0.032 | 0.299 ± 0.022 | 0.43827 ± 0.00033 |
| AFLFLFSITCIV | 0.241 ± 0.013 | 0.181 ± 0.011 | 0.23 ± 0.0042 | 0.195 ± 0.029 | 0.342 ± 0.0063 | 0.197 ± 0.014 | 0.19 ± 0.028 | 0.313 ± 0.0012 |
| AFPVGFLVGLVV | 0.431 ± 0.0065 | 0.4381 ± 0.0028 | 0.469 ± 0.011 | 0.345 ± 0.024 | 0.499 ± 0.0067 | 0.319 ± 0.0075 | 0.348 ± 0.021 | 0.4647 ± 0.0044 |
| AGCFFVVLCGFF | 0.431 ± 0.0071 | 0.436 ± 0.018 | 0.503 ± 0.04 | 0.334 ± 0.035 | 0.495 ± 0.016 | 0.311 ± 0.0056 | 0.326 ± 0.0067 | 0.4673 ± 0.0025 |
| AIDLCIAVVGMV | 0.4439 ± 0.0022 | 0.479 ± 0.042 | 0.491 ± 0.029 | 0.338 ± 0.035 | 0.5106 ± 0.0023 | 0.311 ± 0.015 | 0.342 ± 0.026 | 0.4829 ± 0.001 |
| AITHVILLVTPL | 0.507 ± 0.04 | 0.562 ± 0.02 | 0.5803 ± 0.0043 | 0.411 ± 0.025 | 0.61 ± 0.059 | 0.384 ± 0.0029 | 0.417 ± 0.022 | 0.552 ± 0.0087 |
| ALFVGVVLLVCW | 0.298 ± 0.013 | 0.0857 ± 0.0098 | 0.193 ± 0.023 | 0.177 ± 0.023 | 0.28 ± 0.0069 | 0.154 ± 0.013 | 0.156 ± 0.032 | 0.24564 ± 0.00015 |
| ALHGTVRNWQRQ | 0.39 ± 0.015 | 0.673 ± 0.066 | 0.701 ± 0.059 | 0.63 ± 0.035 | 0.696 ± 0.011 | 0.191 ± 0.016 | 0.245 ± 0.0071 | 0.535 ± 0.04 |
| ALLLLLRRFFLV | 0.154 ± 0.029 | 0.432 ± 0.034 | 0.659 ± 0.029 | 0.643 ± 0.014 | 0.739 ± 0.013 | 0.0867 ± 0.003 | 0.101 ± 0.044 | 0.0903 ± 0.02 |
| ALMTFTLVFTYM | 0.251 ± 0.014 | 0.168 ± 0.0067 | 0.296 ± 0.0055 | 0.181 ± 0.022 | 0.324 ± 0.02 | 0.209 ± 0.026 | 0.173 ± 0.027 | 0.278 ± 0.027 |
| ALPLRSNILSVF | 0.3795 ± 0.0028 | 0.446 ± 0.019 | 0.489 ± 0.037 | 0.344 ± 0.031 | 0.506 ± 0.0091 | 0.242 ± 0.01 | 0.283 ± 0.023 | 0.45 ± 0.011 |
| ALWFVLISILCL | 0.378 ± 0.007 | 0.316 ± 0.016 | 0.353 ± 0.026 | 0.312 ± 0.024 | 0.427 ± 0.03 | 0.304 ± 0.007 | 0.291 ± 0.017 | 0.3896 ± 0.0022 |
| APLPPPPASVPP | – | 0.656 ± 0.076 | 0.7014 ± 0.0041 | 0.672 ± 0.015 | 0.711 ± 0.014 | 0.65 ± 0.014 | 0.649 ± 0.03 | 0.691 ± 0.0089 |
| APPHPPPATFLS | – | 0.643 ± 0.014 | 0.732 ± 0.022 | 0.685 ± 0.019 | 0.721 ± 0.0092 | 0.326 ± 0.032 | 0.357 ± 0.026 | 0.574 ± 0.012 |
| ARFCFRIFSFAS | 0.0816 ± 0.0097 | 0.159 ± 0.018 | 0.178 ± 0.0049 | 0.288 ± 0.032 | 0.168 ± 0.0092 | 0.0406 ± 0.0038 | 0.0456 ± 0.0018 | 0.0722 ± 0.018 |
| ASCFFLFVLRVF | 0.233 ± 0.041 | 0.0589 ± 0.0071 | 0.113 ± 0.0091 | 0.169 ± 0.016 | 0.271 ± 0.0072 | 0.13 ± 0.0043 | 0.112 ± 0.017 | 0.14 ± 0.019 |

— the supplement of paper PMC10724198
